Measurements: patent US20220227882A1 (TRUSTEES OF TUFTS COLLEGE, published 2022)

What was measured:
A462S = target: T1, A462S (Homo sapiens, UniProt P78325); assay: high-throughput flow cytometry, HEK293 cells with mutant ADAM8, high stringency; range in parentheses; dotted box
T1 construct: expressed on HEK293 cells; also called human ADAM8 point mutant A462S
T1 sequence (ADAM8, looked up): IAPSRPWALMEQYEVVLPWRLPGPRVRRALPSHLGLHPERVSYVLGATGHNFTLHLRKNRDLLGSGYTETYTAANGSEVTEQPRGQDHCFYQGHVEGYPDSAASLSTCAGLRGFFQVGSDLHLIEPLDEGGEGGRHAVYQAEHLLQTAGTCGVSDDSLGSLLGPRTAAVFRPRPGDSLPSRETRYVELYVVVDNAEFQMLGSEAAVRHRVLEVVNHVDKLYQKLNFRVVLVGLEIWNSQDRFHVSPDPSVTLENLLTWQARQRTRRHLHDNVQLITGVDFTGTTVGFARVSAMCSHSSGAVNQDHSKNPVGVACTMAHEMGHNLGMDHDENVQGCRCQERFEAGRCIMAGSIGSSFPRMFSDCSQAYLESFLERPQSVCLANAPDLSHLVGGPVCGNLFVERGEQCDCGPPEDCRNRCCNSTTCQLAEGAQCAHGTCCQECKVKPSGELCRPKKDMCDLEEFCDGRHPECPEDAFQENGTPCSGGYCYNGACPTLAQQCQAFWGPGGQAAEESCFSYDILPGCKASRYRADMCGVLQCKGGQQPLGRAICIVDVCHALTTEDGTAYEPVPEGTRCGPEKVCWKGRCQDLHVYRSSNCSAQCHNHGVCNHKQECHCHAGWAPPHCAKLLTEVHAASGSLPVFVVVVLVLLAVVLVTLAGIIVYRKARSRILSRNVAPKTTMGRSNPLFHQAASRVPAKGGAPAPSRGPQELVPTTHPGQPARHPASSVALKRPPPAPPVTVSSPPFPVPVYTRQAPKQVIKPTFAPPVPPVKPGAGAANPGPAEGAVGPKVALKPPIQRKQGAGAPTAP
Protocol: (§1) A variety of experimental parameters were optimized for high-throughput flow cytometry including blocking buffer, and primary and secondary antibody concentrations, to identify the optimal conditions for screening. Through these studies ADP2 and ADP13 were determined to be high affinity binding antibodies.
(§2) Thus, for these studies antigen-binding fragments (Fabs) of ADP2 and ADP13, which bind with lower affinity than the full antibody, were generated. In addition, higher binding stringency conditions were tested, such as increased pH, salinity, and temperature, and/or increased washing, to weaken binding sufficiently to allow identification of critical binding residues in flow cytometry. The final experimental flow cytometry conditions were: primary antibody incubation with ADP2 Fab (0.50 μg/ml), ADP13 Fab (5.00 μg/ml) and Control Ab (0.16 μg/ml) for 60 minutes in flow cytometry buffer containing 10% goat serum in PBS (Ca²⁺ and Mg²⁺ free). […] Samples were washed three times after primary antibody incubation and twice after secondary antibody incubation with PBS (Ca²⁺ and Mg′ free). Next, HEK293 cells expressing WT or mutated ADAM8 proteins or EV DNA were incubated with ADP2 or ADP13 Fabs or Control Ab at their optimal concentrations. Fab binding was detected using Alexa Fluor 488-conjugated secondary antibodies and mean cellular fluorescence determined using the Intellicyt iQue flow cytometry platform. […] This counter-screen strategy facilitates the exclusion of mutants that are locally misfolded or that have an expression defect. Binding of each test Fab to each mutant clone in the alanine scanning library was determined, in duplicate, by high-throughput flow cytometry.

R431A = target: T2, R431A (Homo sapiens, UniProt P78325); assay: as above
T2 construct: expressed on HEK293 cells; also called human ADAM8 point mutant R431A
T2 sequence (ADAM8, looked up): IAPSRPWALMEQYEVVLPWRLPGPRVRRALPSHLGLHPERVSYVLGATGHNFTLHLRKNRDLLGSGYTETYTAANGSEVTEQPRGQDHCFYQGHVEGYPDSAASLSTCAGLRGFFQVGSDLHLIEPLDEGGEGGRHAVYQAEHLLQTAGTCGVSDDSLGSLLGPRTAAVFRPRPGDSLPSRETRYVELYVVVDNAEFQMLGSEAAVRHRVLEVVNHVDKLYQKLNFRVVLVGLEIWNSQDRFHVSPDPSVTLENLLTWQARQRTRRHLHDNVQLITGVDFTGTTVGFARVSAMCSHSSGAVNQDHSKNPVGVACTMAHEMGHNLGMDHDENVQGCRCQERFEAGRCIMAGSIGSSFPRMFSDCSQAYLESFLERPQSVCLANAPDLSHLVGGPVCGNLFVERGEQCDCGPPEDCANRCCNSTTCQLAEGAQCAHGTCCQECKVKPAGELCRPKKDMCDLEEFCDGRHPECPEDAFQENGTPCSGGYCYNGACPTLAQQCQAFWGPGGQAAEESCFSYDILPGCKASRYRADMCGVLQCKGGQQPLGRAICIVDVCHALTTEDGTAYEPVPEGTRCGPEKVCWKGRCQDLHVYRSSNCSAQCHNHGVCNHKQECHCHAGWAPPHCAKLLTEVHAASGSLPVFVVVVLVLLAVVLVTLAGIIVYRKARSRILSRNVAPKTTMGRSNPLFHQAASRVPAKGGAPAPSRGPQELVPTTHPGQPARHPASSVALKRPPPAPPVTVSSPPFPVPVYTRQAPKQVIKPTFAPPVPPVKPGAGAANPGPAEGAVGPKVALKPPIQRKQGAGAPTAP
Protocol: as §1, §2

Row | Binder | Binding Reactivity (% WT) (A462S) | Binding Reactivity (% WT) (R431A)
1 | ADP13 Fab (Fab, V domains shown) VH: EVQLQQSGPEMVKPGTSVKISCKASGYTFTDYYINWVKQSHGKSLEWIGDISPNIGGATYNPKFKGKAILTVDKSARTAYMELRSLTSEDSAVYCCTRGGSSYPYFYAMDYWGQGTSVTVSS VL: DIVMSQSPSSLAVSVGEKVTMSCKSSQSLLYSSNQKKYLAWYQQKPGQSPKLLIYWASTRESGVPDRFTGSGSGTDFTLTISSVKAEDLAVYYCQQFYSYPYTFGGGTKLEINR | 24.7 | –
2 | ADP2 Fab (Fab, V domains shown) VH: EVKLVESGGGLVQPGGSLSLSCAASGFSFPDYYMSWVRQPPGKALEWLGFIRDSANGYTTEYIASVKGRFTFSRDNSQSILYLQMNALRAEDSATYYCARYSRYYGMDYWGQGTSVTVSS VL: SIVMTQTPKILLVSAGDRVTITCKASQTVNYDVAWYQQKPGQSPKPVIYFASNRYTGVPDRFTGSGFGTDFTFTISTVQAEDLAVYFCQQDYSAPWTFGGGTKLEIK | – | 26.2
